Key:
[1] = substrate: NC(=O)C1=CN([C@@H]2O[C@H](COP(=O)(O)OP(=O)(O)OC[C@H]3O[C@@H](n4cnc5c(N)ncnc54)[C@H](OP(=O)(O)O)[C@@H]3O)[C@@H](O)[C@H]2O)C=CC1; assay: cells, lysate or membranes; format: biochemical, Fructilactobacillus sanfranciscensis; settings: 50 mM potassium phosphate pH 7.0, 25 °C, air-saturated O2 (250 µM), cell free extract
[2] = substrate: NC(=O)C1=CN([C@@H]2O[C@H](COP(=O)(O)OP(=O)(O)OC[C@H]3O[C@@H](n4cnc5c(N)ncnc54)[C@H](O)[C@@H]3O)[C@@H](O)[C@H]2O)C=CC1; assay: cells, lysate or membranes; format: biochemical, Fructilactobacillus sanfranciscensis; settings: 50 mM potassium phosphate pH 7.0, 25 °C, air-saturated O2 (250 µM), cell free extract

B1: LsNOX (Lactobacillus sanfranciscensis NOX) (Fructilactobacillus sanfranciscensis) (protein)
chain: MKVIVVGCTHAGTFAVKQTIADHPDADVTAYEMNDNISFLSCGIALYLGKEIKNNDPRGLFYSSPEELSNLGANVQMRHQVTNVDPETKTIKVKDLITNEEKTEAYDKLIMTTGSKPTVPPIPGIDSSRVYLCKNYNDAKKLFEEAPKAKTITIIGSGYIGAELAEAYSNQNYNVNLIDGHERVLYKYFDKEFTDILAKDYEAHGVNLVLGSKVAAFEEVDDEIITKTLDGKEIKSDIAILCIGFRPNTELLKGKVAMLDNGAIITDEYMHSSNRDIFAAGDSAAVHYNPTNSNAYIPLATNAVRQGRLVGLNLTEDKVKDMGTQSSSGLKLYGRTYVSTGINTALAKANNLKVSEVIIADNYRPEFMLSTDEVLMSLVYDPKTRVILGGALSSMHDVSQSANVLSVCIQNKNTIDDLAMVDMLFQPQFDRPFNYLNILGQAAQAQADKAHK
notes: synthetic gene, plasmid pMSsN2, E. coli BL21 (DE3), untagged, cell free extract, about 50 kDa
Km [1]: 5 ± 1 µM | Vmax [1]: 1.1 µmol/min/mg | Km [2]: 9 ± 1 µM | Vmax [2]: 2.2 µmol/min/mg

From publication PMC3995211
